What all share (assay): cell_activity
Data set [1] concerns ProCreHRV (cyclized sCre with LEVLFQGP site) (Escherichia phage P1?). To be noted: 293T; without HRV 3C protease 5±1%; with HRVp 49±4%; FLEx.2 module.
For data set [2], the system named is sCre (truncated Cre, residues 19-343) (Escherichia phage P1?). The following applies: 293T; by GFP MFI; similar % GFP+ cells as full-length.
The test system of data set [3] is ProCre-LRGAG (cyclized sCre with AVP site) (Escherichia phage P1?). The following applies: 293T; without AVP 4.5±0.6%; with AVP 40±1%; FLEx module with mCherry removed.
Data set [4] has as its system cysCreTEV (cyclized sCre with ENLYFQS site) (Escherichia phage P1?). To be noted: 293T; uncleaved (mock); with TEVp GFP MFI similar to non-cyclized sCre.

As for “FLEx DiO cassette with loxP and lox2272 pairs”, the values for the activity in data set [1], in data set [3] and in data set [4] were 5 % GFP+ cells, 4.5 % GFP+ cells and 3.2 % GFP+ cells, respectively. Also, in data set [2], the Cre recombination activity (GFP reporter MFI) (% of full-length Cre) was determined as 77.

Source of the values: US20260002137.
